The test system of experiment [1] is amino acid at a terminal position of a polypeptide. The experiment in a line: Amino acid binding preference of recognition proteins (Tables 1 and 2). Conditions: Table 1, ClpS proteins; amino acid identity at a terminal position of a polypeptide; inferred from literature and/or demonstrated by the inventors. The source says:
It should be appreciated that these sequences and other examples described herein are meant to be non-limiting, and recognition molecules in accordance with the application can include any homologs, variants thereof, or fragments thereof minimally containing domains or subdomains responsible for peptide recognition.

Experiment [2] has as its system N-terminal amino acids of peptides. In words: Single-molecule terminal amino acid recognition by labeled recognition molecule (dwell time analysis). It is filed as binding. Here is the method: An adaptor protein involved in proteolytic pathways was identified as a potential candidate for use as a labeled recognition molecule for detecting N-terminal aromatic residues. The adaptor protein, ClpS2 from an α-proteobacterium (A. tumefaciens), was expressed and labeled at an exposed cysteine residue. […] The exposed cysteine residue was labeled with a rhodamine dye (ATTO 532).
Peptides having different N-terminal aromatic residues were prepared to test whether the labeled ClpS2 was capable of N-terminal amino acid discrimination at the single molecule level.
FIG. 19C is a plot showing discriminant pulse durations (time duration of signal peaks) among the three N-terminal residues when reversibly bound by labeled ClpS2. FIG. 19D is a plot showing discriminant interpulse durations (time duration between signal pulses) among the three N-terminal residues. […] Mean pulse duration for the different N-terminal residues is visualized by histograms (A)-(B) and layered histogram (C).

Experiment [3] has as its system labeled N-terminal FA peptide. In words: Stopped-flow dissociation rate (koff), atClpS2-V1 derivatives. It is filed as binding. Conditions: excess unlabeled trap peptide. The source says:
(§1) To measure the dissociation rate (koff) by stopped-flow, complexes of binder bound to labeled peptide substrate at an optimal concentration were rapidly mixed with excess unlabeled trap peptide. […] The averaged raw traces were fitted with an exponential equation to determine the koff (FIG. 37B, bottom panel).

For experiment [4], the system named is labeled N-terminal LA peptide. The experiment in a line: Stopped-flow dissociation rate (koff), PS557 derivatives. Format: binding. As to conditions: excess unlabeled trap peptide.
Source text: as §1

The subject of experiment [5] is peptides with different N-terminal amino acids, penultimate alanine. The experiment in a line: Biolayer interferometry of multivalent amino acid binders. It is filed as binding. The procedure:
The amino acid binding profile of each Bis-atClpS2-V1 binder (PS609, PS610, and PS611) was evaluated by biolayer interferometry as described above. The monovalent atClpS2-V1 was run as a control. Measurements with each binder were carried out for the amino acids F, Y, and W, along with I, L, M, and V as negative controls. All peptides contained a penultimate alanine (A). Response curves for the tandem binders PS609, PS610, and PS611 are shown in FIGS. 35B, 35C, and 35D, respectively.
The multivalent binder PS612 is a polypeptide that contains tandem copies of two different ClpS protein monomers (atClpS2-V1 and PS372). The amino acid binding profile of PS612 was evaluated by biolayer interferometry as described above. The monovalent binders atClpS2-V1 and PS372 were separately run as controls.
The multivalent binder PS614 is a polypeptide that contains two copies of the ClpS binder PS372 oriented in tandem. The amino acid binding profile of PS614 was evaluated by biolayer interferometry as described above.
The multivalent binders PS637, PS638, and PS639 are polypeptides that each contain two copies of the ClpS binder PS557 oriented in tandem and separated by Linker 1, Linker 2, and Linker 3, respectively. The amino acid binding profiles of each binder was evaluated by biolayer interferometry as described above.

B1: Synechococcus elongatus ClpS2: ClpS protein, SEQ ID NO: 106 (protein, listed as Synechococcus elongatus)
chain: MSPQPDESVLSILGVPRPCVKKRSRNDAFVLTVLTCSLQAIAAPATAPGTTTTRVRQPYPHFRVIVLDDDVNTFQHVAECLLKYIPGMTGDRAWDLTNQVHYEGAATVWSGPQEQAELYHEQLRREGLTMAPLEAA
Take B1: in experiment [1], the “Binding Pref.” value is “F, W, Y, L”. Besides, the “recognition of terminal amino acids (dwell time analysis)” value in experiment [2] is “leucine recognition”.

B2: PS704 (protein)
chain: MSDSPVDLKPKPKVKPKLERPKLYKVMLLNDDYTPMSFVTVVLKAVFRMSEDTGRRVMMTAHRFGSAVVVVCERDIAETKAKEATDLGKEAGFPLMFTTEPEEGSAGSAAGSGEFMDKDCEMKRTTLDSPLGKLELSGCEQGLHEIKLLGKGTSAADAVEVPAPAAVLGGPEPLMQATAWLNAYFHQPEAIEEFPVPALHHPVFQQESFTRQVLWKLLKVVKFGEVISYQQLAALAGNPAATAAVKTALSGNPVPILIPCHRVVSSSGAVGGYEGGLAVKEWLLAHEGHRLGKPGLGMDKDCEMKRTTLDSPLGKLELSGCEQGLHEIKLLGKGTSAADAVEVPAPAAVLGGPEPLMQATAWLNAYFHQPEAIEEFPVPALHHPVFQQESFTRQVLWKLLKVVKFGEVISYQQLAALAGNPAATAAVKTALSGNPVPILIPCHRVVSSSGAVGGYEGGLAVKEWLLAHEGHRLGKPGLGGSAGSAAGSGEFHHHHHHHHHHGGGSGGGSGGGSGLNDFFEAQKIEWHEGGGSGGGSGGGSGLNDFFEAQKIEWHE
In turn, B2 had an FA koff in experiment [3] of 0.6774 s⁻¹.

B3: PS696 (protein)
chain: MPTAASATESAIEDTPAPARPEVDGRTKPKRQPRYHVVLWNDDDHTYQYVVVMLQSLFGHPPERGYRLAKEVDTQGRVIVLTTTREHAELKRDQIHAFGYDRLLARSKGSMKASIEAEEGSAGSAAGSGEFMDKDCEMKRTTLDSPLGKLELSGCEQGLHEIKLLGKGTSAADAVEVPAPAAVLGGPEPLMQATAWLNAYFHQPEAIEEFPVPALHHPVFQQESFTRQVLWKLLKVVKFGEVISYQQLAALAGNPAATAAVKTALSGNPVPILIPCHRVVSSSGAVGGYEGGLAVKEWLLAHEGHRLGKPGLGGSAGSAAGSGEFHHHHHHHHHHGGGSGGGSGGGSGLNDFFEAQKIEWHEGGGSGGGSGGGSGLNDFFEAQKIEWHE
The molecule B3 gave an LA koff in experiment [4] of 0.15 s⁻¹.

B4: PS705 (protein)
chain: MSDSPVDLKPKPKVKPKLERPKLYKVMLLNDDYTPMSFVTVVLKAVFRMSEDTGRRVMMTAHRFGSAVVVVCERDIAETKAKEATDLGKEAGFPLMFTTEPEEHHHHHHHHHHGGGSGGGSGGGSGLNDFFEAQKIEWHEGGGSGGGSGGGSGLNDFFEAQKIEWHEGSAGSAAGSGEFMDKDCEMKRTTLDSPLGKLELSGCEQGLHEIKLLGKGTSAADAVEVPAPAAVLGGPEPLMQATAWLNAYFHQPEAIEEFPVPALHHPVFQQESFTRQVLWKLLKVVKFGEVISYQQLAALAGNPAATAAVKTALSGNPVPILIPCHRVVSSSGAVGGYEGGLAVKEWLLAHEGHRLGKPGLG
As for B4, the FA koff in experiment [3] was 1.2655 s⁻¹.

B5: PS639: two copies of PS557 in tandem separated by Linker 3 (protein)
chain: MPTAASATESAIEDTPAPARPEVDGRTKPKRQPRYHVVLWNDDDHTYQYVVVMLQSLFGHPPERGYRLAKEVDTQGRVIVLTTTREHAELKRDQIHAFGYDRLLARSKGSMKASIEAEEGSAGSAAGSGEFGSAGSAAGSGEFGSAGSAAGSGEFMPTAASATESAIEDTPAPARPEVDGRTKPKRQPRYHVVLWNDDDHTYQYVVVMLQSLFGHPPERGYRLAKEVDTQGRVIVLTTTREHAELKRDQIHAFGYDRLLARSKGSMKASIEAEEGGSHHHHHHHHHHGGGSGGGSGGGSGLNDFFEAQKIEWHEGGGSGGGSGGGSGLNDFFEAQKIEWHE
Take B5: in experiment [5], the “N-terminal amino acids bound (biolayer interferometry)” value (“N-terminal amino acids bound” below) was “N-terminal I, L, and V”.

B6: PS612: polypeptide with tandem copies of two different ClpS monomers (atClpS2-V1 and PS372) (protein)
chain: MSDSPVDLKPKPKVKPKLERPKLYKVMLLNDDYTPMSFVTVVLKAVFRMSEDTGRRVMMTAHRFGSAVVVVCERDIAETKAKEATDLGKEAGFPLMFTTEPEEGSAGSAAGSGEFMAFPARGKTAPKNEVRRQPPYNVILLNDDDHTYRYVIEMLQKIFGFPPEKGFQIAEEVDRTGRVILLTTSKEHAELKQDQVHSYGPDPYLGRPCSGSMTCVIEPAVGGSHHHHHHHHHHGGGSGGGSGGGSGLNDFFEAQKIEWHEGGGSGGGSGGGSGLNDFFEAQKIEWHE
Regarding B6, in experiment [5], the “N-terminal amino acids bound” value is “N-terminal F, W, Y, I, L, and V”.

B7: PS638: two copies of PS557 in tandem separated by Linker 2 (protein)
chain: MPTAASATESAIEDTPAPARPEVDGRTKPKRQPRYHVVLWNDDDHTYQYVVVMLQSLFGHPPERGYRLAKEVDTQGRVIVLTTTREHAELKRDQIHAFGYDRLLARSKGSMKASIEAEEGSAGSAAGSGEFMPTAASATESAIEDTPAPARPEVDGRTKPKRQPRYHVVLWNDDDHTYQYVVVMLQSLFGHPPERGYRLAKEVDTQGRVIVLTTTREHAELKRDQIHAFGYDRLLARSKGSMKASIEAEEGGSHHHHHHHHHHGGGSGGGSGGGSGLNDFFEAQKIEWHEGGGSGGGSGGGSGLNDFFEAQKIEWHE
As to B7, the “N-terminal amino acids bound” value in experiment [5] is “N-terminal I, L, and V”.

B8: PS614: polypeptide with two copies of the ClpS binder PS372 oriented in tandem (protein)
chain: MAFPARGKTAPKNEVRRQPPYNVILLNDDDHTYRYVIEMLQKIFGFPPEKGFQIAEEVDRTGRVILLTTSKEHAELKQDQVHSYGPDPYLGRPCSGSMTCVIEPAVGSAGSAAGSGEFMAFPARGKTAPKNEVRRQPPYNVILLNDDDHTYRYVIEMLQKIFGFPPEKGFQIAEEVDRTGRVILLTTSKEHAELKQDQVHSYGPDPYLGRPCSGSMTCVIEPAVGGSHHHHHHHHHHGGGSGGGSGGGSGLNDFFEAQKIEWHEGGGSGGGSGGGSGLNDFFEAQKIEWHE
For the molecule B8, the “N-terminal amino acids bound” value in experiment [5] is “N-terminal I, L, and V”.

B9: PS703 (protein)
chain: MSDSPVDLKPKPKVKPKLERPKLYKVMLLNDDYTPMSFVTVVLKAVFRMSEDTGRRVMMTAHRFGSAVVVVCERDIAETKAKEATDLGKEAGFPLMFTTEPEEGSAGSAAGSGEFMDKDCEMKRTTLDSPLGKLELSGCEQGLHEIKLLGKGTSAADAVEVPAPAAVLGGPEPLMQATAWLNAYFHQPEAIEEFPVPALHHPVFQQESFTRQVLWKLLKVVKFGEVISYQQLAALAGNPAATAAVKTALSGNPVPILIPCHRVVSSSGAVGGYEGGLAVKEWLLAHEGHRLGKPGLGGSAGSAAGSGEFHHHHHHHHHHGGGSGGGSGGGSGLNDFFEAQKIEWHEGGGSGGGSGGGSGLNDFFEAQKIEWHE
Consider B9, for which the FA koff in experiment [3] came to 0.7674 s⁻¹.

B10: PS637: two copies of PS557 in tandem separated by Linker 1 (protein)
chain: MPTAASATESAIEDTPAPARPEVDGRTKPKRQPRYHVVLWNDDDHTYQYVVVMLQSLFGHPPERGYRLAKEVDTQGRVIVLTTTREHAELKRDQIHAFGYDRLLARSKGSMKASIEAEEGGGSGGGSGGGSGMPTAASATESAIEDTPAPARPEVDGRTKPKRQPRYHVVLWNDDDHTYQYVVVMLQSLFGHPPERGYRLAKEVDTQGRVIVLTTTREHAELKRDQIHAFGYDRLLARSKGSMKASIEAEEGGSHHHHHHHHHHGGGSGGGSGGGSGLNDFFEAQKIEWHEGGGSGGGSGGGSGLNDFFEAQKIEWHE
Turning to B10, the “N-terminal amino acids bound” value in experiment [5] was “N-terminal I, L, and V”.

Source of the values: US12065466B2, “Methods and compositions for protein sequencing” (Quantum-Si Incorporated, priority 2020, dated 2024).
